From US20100196385A1 (AstraZeneca / MedImmune, published 2010) come the findings set out here.

The target in test [1] is T1, human Jagged1 (human, UniProt P78504 34-1218).
T1 construct: whole, on cells
Nature of the test: FACS, HEK-293 cells stably overexpressing human Jagged1. The procedure:
The ability of the purified antibodies to bind to human Jagged1 and Dll1 was determined by FACS analysis. […] Cells were resuspended in PBS containing 2% FCS and seeded at 50000 cells/well into V-bottomed plates. Anti-DLL4 antibodies diluted in PBS containing 2% FCS were added at a final concentration of 5 or 15 μg/ml and plates were incubated for 1 h at 4° C. […] Data was analyzed by comparing the shift in geometric mean fluorescence in the mock-transfected cells to that observed in the Jagged1- or Dll1-transfected cells and is shown in Tables 16 and 17.

Test [2] has as its target T2, full length human DLL4 (human, UniProt Q9NR61 27-685).
T2 construct: whole, on cells; also called native DLL4 expressed in HEK293 cells
Nature of the test: FMAT competition, supernatant vs Alexa-647 human Notch1/Fc, 293T cells with human DLL4; FMAT competition with Alexa-647 human Notch1/Fc, native human DLL4 on 293T cells, 4 C, n = 2. The procedure: Transfected and untransfected 239T cells were reconstituted in PBS containing 2% FCS and 5000 transfected and 17500 non-transfected cells were plated in 20 μl into wells of a 384-well tissue culture plate (Corning Costar, catalog #3712). Subsequently, 20 μl of hybridoma supernatant was added and plates were incubated at 4° C. for 1 h, at which time 20 μl of Alexa-647 labeled human Notch1/Fc was added at a final concentration of 6.7 ng/ml. After a further 3 h incubation at 4° C., the amount of bound Notch1/Fc was determined by reading the fluorescence in each well using an FMAT 8200 instrument (Applied Biosystems). Results are expressed as % inhibitions with the minimum inhibition in the assay being determined by the effects of non-DLL4 binding supernatants prepared in a similar way as described in example 2, and the maximum inhibition being defined as the signal obtained in the presence of a saturating concentration of unlabeled Notch1/Fc. N.T.=not tested

For test [3], the target named is T2, full length human DLL4. Nature of the test: FMAT, hybridoma supernatant, 293T cells with human DLL4. The essentials: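 Transfected 293T cells (3000 expressing plus 15000 mock-transfected per well), in PBS with 2% FBS, were mixed with hybridoma supernatant and Cy5 goat anti-human IgG Fc (750 ng/ml final). After 3 h at room temperature, binding was read by FMAT fluorescence. Notch1/Fc served as positive control for DLL4 and Notch3/Fc for Jagged1.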

T2 sequence (Q9NR61 27-685): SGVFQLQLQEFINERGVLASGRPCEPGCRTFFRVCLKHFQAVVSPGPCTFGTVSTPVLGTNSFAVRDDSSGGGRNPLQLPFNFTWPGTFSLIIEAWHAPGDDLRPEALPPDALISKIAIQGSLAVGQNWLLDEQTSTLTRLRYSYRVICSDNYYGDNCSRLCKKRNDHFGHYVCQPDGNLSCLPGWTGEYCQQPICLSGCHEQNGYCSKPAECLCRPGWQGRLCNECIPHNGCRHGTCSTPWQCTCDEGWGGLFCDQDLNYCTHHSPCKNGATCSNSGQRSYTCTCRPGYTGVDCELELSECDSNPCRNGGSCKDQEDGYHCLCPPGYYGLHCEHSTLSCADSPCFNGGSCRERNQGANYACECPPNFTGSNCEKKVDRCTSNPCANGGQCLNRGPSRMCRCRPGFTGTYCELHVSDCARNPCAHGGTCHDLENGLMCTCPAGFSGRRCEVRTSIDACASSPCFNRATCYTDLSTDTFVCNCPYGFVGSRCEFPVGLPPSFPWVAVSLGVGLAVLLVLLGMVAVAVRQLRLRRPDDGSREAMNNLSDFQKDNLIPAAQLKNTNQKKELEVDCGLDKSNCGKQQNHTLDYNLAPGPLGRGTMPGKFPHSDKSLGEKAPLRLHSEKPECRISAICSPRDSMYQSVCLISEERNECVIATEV
T1 sequence (P78504 34-1218): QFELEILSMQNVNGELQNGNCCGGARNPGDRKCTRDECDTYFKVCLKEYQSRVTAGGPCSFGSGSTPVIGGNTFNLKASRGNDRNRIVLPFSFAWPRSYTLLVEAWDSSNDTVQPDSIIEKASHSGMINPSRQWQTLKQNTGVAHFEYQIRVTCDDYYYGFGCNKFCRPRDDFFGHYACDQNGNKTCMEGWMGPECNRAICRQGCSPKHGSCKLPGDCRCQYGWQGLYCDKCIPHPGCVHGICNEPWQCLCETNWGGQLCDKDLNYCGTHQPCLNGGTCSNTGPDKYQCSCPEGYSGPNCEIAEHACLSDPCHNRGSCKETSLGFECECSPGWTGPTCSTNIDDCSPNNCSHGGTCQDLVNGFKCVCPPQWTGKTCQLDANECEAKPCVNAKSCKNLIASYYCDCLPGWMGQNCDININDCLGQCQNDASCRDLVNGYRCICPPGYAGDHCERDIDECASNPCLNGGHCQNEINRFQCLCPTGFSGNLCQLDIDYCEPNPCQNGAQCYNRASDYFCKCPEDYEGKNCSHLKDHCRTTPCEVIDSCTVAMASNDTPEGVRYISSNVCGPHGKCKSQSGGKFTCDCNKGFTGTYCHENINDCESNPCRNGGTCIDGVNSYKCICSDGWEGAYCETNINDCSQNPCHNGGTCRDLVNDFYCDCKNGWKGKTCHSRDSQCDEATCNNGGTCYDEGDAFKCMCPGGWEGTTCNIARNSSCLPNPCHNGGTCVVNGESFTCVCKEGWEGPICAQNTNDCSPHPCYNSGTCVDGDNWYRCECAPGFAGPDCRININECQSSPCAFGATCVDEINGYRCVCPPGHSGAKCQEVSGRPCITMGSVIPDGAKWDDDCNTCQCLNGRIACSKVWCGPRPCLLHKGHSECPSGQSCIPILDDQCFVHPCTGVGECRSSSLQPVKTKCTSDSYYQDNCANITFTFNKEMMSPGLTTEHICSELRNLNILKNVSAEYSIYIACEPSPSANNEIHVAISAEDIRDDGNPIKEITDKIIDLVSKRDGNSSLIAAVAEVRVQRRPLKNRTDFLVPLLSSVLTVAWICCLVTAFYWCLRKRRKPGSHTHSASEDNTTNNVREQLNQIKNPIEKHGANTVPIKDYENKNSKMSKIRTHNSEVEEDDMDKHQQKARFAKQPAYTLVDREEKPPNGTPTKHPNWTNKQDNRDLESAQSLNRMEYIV

B1: 4B4 (antibody, IgG4, V domains shown)
VH: QVLLIQSGAEVKKPGASVQVSCKASGYTFTNYGVIWVRQAPGQGLEYMGWISAYNGNTNYAQKLQDRVTMTSDTSTTTAYMELRSLRSDDTAVYYCARELGSSFDYWGQGTLVTVSS
VL: SYELTQPPSVSVSPGQTARITCSGDALPKKYAYWYQQKSGQAPVLVIYEDIKRPSGIPERFSGSSSGTMATLTISGAQVEDEADYYCFSTDNSGDHSVFGGGTKLTVL
notes: Fully human; used for IgG4 rows and where no isotype is printed; also called 4B4 IgG4; 4B4.1
For B1, in test [1], the binding result is given as “no binding”. Besides, the “% inhibition n = 2” value in test [2] worked out at 109%.

B2: 2H10 (antibody, IgG4, V domains shown)
VH: QVQLVESGGGVVQPGRSLRLSCAASGFTFSRHGMHWVRQAPGKGLEWVAVVWFDGSNIYYADSVKGRFTISRDNSKNTLYLQMNSLRAEDTAMYYCARDSRIAAADYWGQGTLVTVSS
VL: SYELTQPPSVSVSPGQTVSITCSGDKLGDKYVCWYQQKPGQSPVLVIYQESKRPSGIPERFSGSSSGNTATLTISGTQAMDEADYYCQTWDSSLVVFGGGTKLTVL
notes: Fully human; used for IgG4 rows and where no isotype is printed; also called 2H10 IgG4
For B2, the binding result in test [1] is on record as “no binding”. In test [3], this molecule registered a Count of 191, an FL1 of 10800 and an FL1 x count of 2.06e+06.

B3: 21H3 (antibody, IgG4, V domains shown)
VH: QVQLVQSGAEVKKPGASVKVSCKASGYTFTNYGITWVRQAPGQGPEWMGWISAYNGNTNYAQKLQDRVTVTTDTSTSTAYMELRSLRSDDTAVYYCARDRVPRIPVTTEAFDIWGQGTMVTVSS
VL: QSVLTQPPSASGTPGQRVTISCSGSSSNIGSYFVYWYQQLPGTAPKLLIYRNNQRPSGVPDRFSGSESGTSASLAISGLRSEDEADYYCAAWDDSLSGHWVFGGGTRLTVL
notes: Fully human; used for IgG4 rows and where no isotype is printed; also called 21H3 IgG4
On to B3, for which the “% inhibition n = 2” value in test [2] is 131%.

B4: 9G8 (antibody, IgG4, V domains shown)
VH: QLQLQESGPGLVKPSETLSLSCTVSGGSISSSSSYWGLIRQPPGKGLEWIGSIYYSGSTYYSPSLKSRVSISVDTSKNQFSLKLSSVTAADTAVYFCARQGYGGHPDVFDIWGQGTMVTVSS
VL: SSELTQSPSVSVSPGQTARITCSGDKLGDVYVCWYQQKTGQSPVLVIYEDTKRPSGIPERFSGSNSGNTATLTISGTQVMDEADYYCQAWDSTTAVIFGGGTKLTVL
notes: Fully human; used for IgG4 rows and where no isotype is printed; also called 9G8 IgG4
In test [3], B4 showed a Count of 198, an FL1 of 9810 and an FL1 x count of 1.94e+06.
